From article PMC4786110

Target: aMh-FcG2a, nanobody aMh fused with the Fc domain of mouse IgG2a (Camelus bactrianus | camel | mouse)
Test: SPR; Biacore 3000; aMh-Fc captured by anti-mouse IgG immobilised on a CM5 chip; antigen flowed at 5.95-595 nM; 25°C, HBS-EP pH 7.4, 30 μl/min; 1:1 fitting

Sequence of aMh-FcG2a, nanobody aMh fused with the Fc domain of mouse IgG2a (Camelus bactrianus | camel | mouse) (heavy, as listed by the source): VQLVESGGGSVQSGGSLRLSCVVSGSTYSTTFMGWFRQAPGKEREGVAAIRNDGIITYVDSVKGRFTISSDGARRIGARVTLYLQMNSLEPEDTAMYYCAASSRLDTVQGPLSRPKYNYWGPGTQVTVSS

- Kd: 5.94 nM
- koff: 0.000106 s⁻¹
- kon: 17800 M⁻¹ s⁻¹
Substance: ABC transporter substrate binding protein (MH3620) of Mycoplasma hominis (natural protein)
